Measurements: US20110212476A1

Key:
Assay in all cases: cell-based or functional assay
Gαi1 R178C/A326S (human) = biological target: Gαi1 R178C/A326S (human)
Gαi1 R178C (human) = biological target: Gαi1 R178C (human)
Gαi1 R178M (human) = biological target: Gαi1 R178M (human)
Gαi1 R178M/A326S (human) = biological target: Gαi1 R178M/A326S (human)
Gαi1 A326S (human) = biological target: Gαi1 A326S (human)
[1] = biological target: Gαi1 wild type (full length human, His-tagged) (human)
Gαi1 wild type (full length human, His-tagged) (human), sequence (B2RSH2 2-354): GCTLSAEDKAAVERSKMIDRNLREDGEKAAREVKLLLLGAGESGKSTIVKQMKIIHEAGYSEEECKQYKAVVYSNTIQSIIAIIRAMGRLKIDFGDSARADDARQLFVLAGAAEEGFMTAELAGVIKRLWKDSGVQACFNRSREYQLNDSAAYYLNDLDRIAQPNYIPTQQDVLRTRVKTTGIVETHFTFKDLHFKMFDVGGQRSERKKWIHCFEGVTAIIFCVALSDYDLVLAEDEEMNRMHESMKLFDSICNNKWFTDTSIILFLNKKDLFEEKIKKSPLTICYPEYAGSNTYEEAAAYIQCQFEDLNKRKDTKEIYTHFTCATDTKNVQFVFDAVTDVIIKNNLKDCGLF

human His-tagged RGS4 (23-298), sequence (P49798 other isoform, or with tags, fused parts or gaps limits assumed): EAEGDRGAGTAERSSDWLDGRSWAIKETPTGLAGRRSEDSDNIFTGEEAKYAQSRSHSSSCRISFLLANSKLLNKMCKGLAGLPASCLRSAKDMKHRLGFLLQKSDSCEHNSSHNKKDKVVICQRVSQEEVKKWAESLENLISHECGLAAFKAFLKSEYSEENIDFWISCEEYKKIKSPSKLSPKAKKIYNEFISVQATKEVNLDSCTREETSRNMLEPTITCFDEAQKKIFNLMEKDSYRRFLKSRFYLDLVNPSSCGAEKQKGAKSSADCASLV
Gαi1 R178M/A326S (human), sequence (B2RSH2 2-354 R178M/A326S): as the sequence (B2RSH2 2-354) above, with R177M, A325S counted along it
Gαi1 A326S (human), sequence (B2RSH2 2-354 A326S): as the sequence (B2RSH2 2-354) above, with A325S counted along it
Gαi1 R178C (human), sequence (B2RSH2 2-354 R178C): as the sequence (B2RSH2 2-354) above, with R177C counted along it
Gαi1 R178M (human), sequence (B2RSH2 2-354 R178M): as the sequence (B2RSH2 2-354) above, with R177M counted along it
Gαi1 R178C/A326S (human), sequence (B2RSH2 2-354 R178C/A326S): as the sequence (B2RSH2 2-354) above, with R177C, A325S counted along it

human His-tagged RGS4 (23-298) (from UniProt P49798 23-298)
GAP Factor (Gαi1 R178C/A326S (human)): 3.63 fold | GTPase rate +RGS4 (steady state, GDP immunodetection) (Gαi1 R178C/A326S (human)): 0.069 min⁻¹ | GAP Factor (Gαi1 R178C (human)): 0.92 fold | GTPase rate +RGS4 (steady state, GDP immunodetection) (Gαi1 R178C (human)): 0.00035 min⁻¹ | GAP Factor (Gαi1 R178M (human)): 1.19 fold | GTPase rate +RGS4 (steady state, GDP immunodetection) (Gαi1 R178M (human)): 0.007 min⁻¹ | GAP Factor (Gαi1 R178M/A326S (human)): 6.47 fold | GTPase rate +RGS4 (steady state, GDP immunodetection) (Gαi1 R178M/A326S (human)): 0.097 min⁻¹ | maximum polarization shift resulting from RGS stimulation (Gαi1 R178M/A326S (human)): 73 mP | stimulation of GTPase activity (Gαi1 R178M/A326S (human)): 6.6 fold | GAP Factor (Gαi1 A326S (human)): 1.1 fold | GTPase rate +RGS4 (steady state, GDP immunodetection) (Gαi1 A326S (human)): 0.11 min⁻¹ | GAP Factor [1]: 0.81 fold | GTPase rate +RGS4 (steady state, GDP immunodetection) [1]: 0.013 min⁻¹
